Values of other authors, collected in PMC9558312.

Tests used:
Test in all cases: NMR
His4 = His4 (UniProt position 25, YTLKCHNTQLP)
Asp42 = Asp42 (UniProt position 63, KRGCADNCPKN)
Glu17 = Glu17 (UniProt position 38, YKTCPEGKNLC)
Asp59 = Asp59 (UniProt position 80, VCCSTDKCN--)
Asp66 = Asp66 (UniProt position 84, RWWCNDGRTPG)
Asp52 = Asp52 (UniProt position 70, TDGSTDYGILQ)
Asp48 = Asp48 (UniProt position 66, TNRNTDGSTDY)
Asp119 = Asp119 (UniProt position 137, RCKGTDVQAWI)
Asp18 = Asp18 (UniProt position 36, KRHGLDNYRGY)
Glu7 = Glu7 (UniProt position 25, VFGRCELAAAM)
Asp101 = Asp101 (UniProt position 119, KKIVSDGNGMN)
Asp87 = Asp87 (UniProt position 105, ALLSSDITASV)
Glu35 = Glu35 (UniProt position 53, CAAKFESNFNT)

Row | Substance | pKa (His4) | pKa (Asp42) | pKa (Glu17) | pKa (Asp59) | pKa (Asp66) | pKa (Asp52) | pKa (Asp48) | pKa (Asp119) | pKa (Asp18) | pKa (Glu7) | pKa (Asp101) | pKa (Asp87) | pKa (Glu35)
1 | Cardiotoxin V (cytotoxin 5, CTX A5) (Naja naja atra (Naja atra, Taiwan cobra)) | 5.5 | 3.2 | 4 | <2 | – | – | – | – | – | – | – | – | –
2 | Hen egg white lysozyme (HEWL, lysozyme C) (Gallus gallus) | – | – | – | – | 1.2 | 3.6 | 1.4 | 3.5 | 2.8 | 2.6 | 4.5 | 2.2 | 6.1
